According to the Immune Epitope Database (IEDB):

How the values were obtained:
Settings in all cases: source organism: Yersinia pestis Nepal516
HLA-C*14:02 = assay: IEDB peptide-MHC binding, purified MHC/direct/fluorescence; filed as Kd, often an IC50 or EC50 that approximates it; ≥ and ≤ were set here for values at or beyond the usual limits of such assays
HLA-C*15:02 = assay: as above
HLA-A*02:01 = assay: IEDB peptide-MHC binding, purified MHC/competitive/fluorescence; filed as Kd, often an IC50 or EC50 that approximates it; ≥ and ≤ were set here for values at or beyond the usual limits of such assays
HLA-A*26:01 = assay: as above
HLA-A*32:15 = assay: as above
HLA-B*15:01 = assay: as above
HLA-B*15:42 = assay: as above
HLA-B*27:20 = assay: as above
HLA-B*40:13 = assay: as above
HLA-B*45:06 = assay: as above
HLA-B*58:01 = assay: as above
HLA-B*83:01 = assay: as above
HLA-C*06:02 = assay: as above

YMYDFILRF was tested, and the Kd (HLA-C*14:02) was 4100 nM, the Kd (HLA-C*15:02) was at least 20000 nM and the Kd (HLA-A*02:01) was 15.9 nM. The Kd (HLA-A*26:01) was at least 20000 nM, the Kd (HLA-A*32:15) was 908 nM and the Kd (HLA-B*15:01) was 2330 nM. The Kd (HLA-B*15:42) was at least 5000 nM, the Kd (HLA-B*27:20) was 63.3 nM and the Kd (HLA-B*40:13) was 159 nM. It also gave a Kd (HLA-B*45:06) of at least 5000 nM, a Kd (HLA-B*58:01) of at least 20000 nM and a Kd (HLA-B*83:01) of at least 5000 nM. The Kd (HLA-C*06:02) was 1180 nM.
